The target of assay [1] is T1, human CD3 expressed on cells (human, UniProt P07766 23-207; P04234 22-171; P09693 23-182).
T1 construct: whole, on cells; CD3 complex on Jurkat cells and on human primary T cells
Nature of the assay: flow cytometry, 25 nM. The gist of the method: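 25 nM Ab in FACS buffer (PBS+2% FBS), 30 min at 4° C on CD3+ cells; flow cytometry MFI normalized to isotype = FOI; cutoff ≥10 for positive.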
On the technique in general: In flow cytometry, cells or beads pass a laser one at a time.

Assay [2] concerns the target T2, cynomolgus monkey CD3 expressed on primary T cells (cynomolgus monkey, UniProt Q95LI5 22-198; Q95LI8 22-171; Q95LI7 23-181).
T2 construct: whole, on cells; CD3 complex on purified cynomolgus monkey T cells; also called cyno CD3
In words: flow cytometry, 25 nM, cyno primary T cells. The method, then:
Purified antibodies were confirmed to bind CD3 expressed on cells using the CytoFLEX S or LX flow cytometers (Beckman Coulter). Antibodies were diluted to 25 nM in FACS buffer (PBS+2% FBS) and were incubated with CD3-expressing cells for 30 minutes at 4° C. […] The median fluorescence intensity of the binding signal for each antibody was normalized to the isotype control to obtain a fold over isotype value. An antibody with a fold over isotype (FOI) of ≥10 was considered to be positive for binding.

T2 sequence (Q95LI5 22-198, chain 1 of 3): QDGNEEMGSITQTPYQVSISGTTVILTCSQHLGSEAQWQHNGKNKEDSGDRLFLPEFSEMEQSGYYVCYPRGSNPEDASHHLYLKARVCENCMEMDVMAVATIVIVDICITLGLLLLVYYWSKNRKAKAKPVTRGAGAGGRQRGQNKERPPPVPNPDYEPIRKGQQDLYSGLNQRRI
T2 sequence (Q95LI8 22-171, chain 2 of 3): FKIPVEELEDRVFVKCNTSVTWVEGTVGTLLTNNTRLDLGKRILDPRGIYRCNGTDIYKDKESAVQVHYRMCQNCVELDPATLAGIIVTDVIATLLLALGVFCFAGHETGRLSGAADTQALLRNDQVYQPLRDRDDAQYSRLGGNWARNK
T2 sequence (Q95LI7 23-181, chain 3 of 3): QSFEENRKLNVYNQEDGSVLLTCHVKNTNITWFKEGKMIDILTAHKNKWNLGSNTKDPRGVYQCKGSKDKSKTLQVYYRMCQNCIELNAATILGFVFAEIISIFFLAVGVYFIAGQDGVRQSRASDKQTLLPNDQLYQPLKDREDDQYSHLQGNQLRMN
T1 sequence (P07766 23-207, chain 1 of 3): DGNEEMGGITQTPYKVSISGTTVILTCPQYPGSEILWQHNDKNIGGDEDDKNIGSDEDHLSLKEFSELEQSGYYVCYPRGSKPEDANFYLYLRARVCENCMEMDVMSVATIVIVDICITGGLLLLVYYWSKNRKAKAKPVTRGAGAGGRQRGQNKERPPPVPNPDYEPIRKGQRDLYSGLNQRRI
T1 sequence (P04234 22-171, chain 2 of 3): as the sequence (Q95LI8 22-171, chain 2 of 3) above, with V5I, K15N, V20I, T32S, N33D, N34I, A64T, N74S, L83V, R141H counted along it
T1 sequence (P09693 23-182, chain 3 of 3): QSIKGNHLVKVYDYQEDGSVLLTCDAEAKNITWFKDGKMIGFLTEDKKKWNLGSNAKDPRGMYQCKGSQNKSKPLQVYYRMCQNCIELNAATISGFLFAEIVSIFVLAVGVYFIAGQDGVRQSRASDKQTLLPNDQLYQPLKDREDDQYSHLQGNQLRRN

B1: mAb 106 (antibody, V domains shown)
VH: QVQLVESGGGVVQPGRSLRLSCAASGFTFRSYGMHWVRQAPGKGLEWVAIIWYNGNKKDYVDSVKGRFTISRDNSKNTLYLQMNSLRAEDTALYYCARGPGYNWFDPWGQGTLVTVSS
VL: DIQMTQSPPSLSASVGDRVTITCRASQRISSYLNWYQQKPGKAPKLLIYAASSLQSGVPSRFSGSGSGTDFTLTISSLQPEDFATYYCQQSDSFPLTFGGGTKVEII
In the case of B1, in assay [1], the “Human primary T Cell Binding (FOI)” value amounted to 210 FOI and the “Jurkat Cell Binding (FOI)” value turned out to be 186 FOI. In addition, in assay [2], the binding result is “no binding (tested: FOI >=10 = positive)”.

B2: mAb 110 (antibody, V domains shown)
VH: QVQLVESGGGVVQPGRSLRLSCAASGFTFRSYGMHWVRQAPGKGLEWVAIIWYNGNKKDYVDSVKGRFTISRDNSKNMLYLQMNSLRAEDTALYYCARGPGYNWFDPWGQGTLVTVSS
VL: DIQMTQSPPSLSASVGDRVTITCRASQRISSYLNWYQQRPGKAPKLLIYAASSLQSGVPSRFSGSGSGTDFTLTISSLQPEDFATYYCQQTDSFPLTFGGGTKVEII
Consider B2, for which, in assay [1], the “Human primary T Cell Binding (FOI)” value worked out at 214 FOI and the “Jurkat Cell Binding (FOI)” value amounted to 197 FOI. The binding result in assay [2] is on record as “no binding (tested: FOI >=10 = positive)”.

B3: mAb 74 (antibody, V domains shown)
VH: EVQLVESGGGLVQPGRSLRLSCAASGFTFADYVMHWVRQAPGKGLEWVSGINWNNARIGYVGSVKGRFTISRDNAKNSLYLQMTSLRVEDTALYHCVREGNFDFWSAYYRGFLDLWGRGTLVTVSS
VL: DIQMTQSPSSLSASVGDRVTITCRASQGIRSDLGWYQQKPGKAPKRLIYGASSLQGGVPSRFSGSGSGTEFTLTISSLQPEDFATYYCLQHNSYPYTFGQGTKLEIK
On to B3, for which, in assay [1], the “Human primary T Cell Binding (FOI)” value worked out at 146 FOI and the “Jurkat Cell Binding (FOI)” value came out at 151 FOI. Besides, the binding result in assay [2] is “no binding (tested: FOI >=10 = positive)”.

B4: mAb 111 (antibody, V domains shown)
VH: EVQLVESGGVLVKTGGSLRLSCVASGFSFKKAWMNWVRQAPGKGLEWVGRIKRNSDGGAADYAAPVKDRFTLSRDDSKNTLYLQMNSLKTEDTAVYYCTTLDSSSWYVGYYYMDVWGKGTTVTVSS
VL: DIHMTQSPSSVSASLGDRVTFTCRASQNINNWLAWYQQKPGKAPKLLIYTASSLQSGVPSRFSGSGSGTDFTLTISSLQPDDFATYYCQQAHSLPITFGQGTRLGIK
Consider B4, for which, in assay [1], the “Human primary T Cell Binding (FOI)” value was found to be 168 FOI and the “Jurkat Cell Binding (FOI)” value was found to be 160 FOI. In assay [2], the binding result is reported as “no binding (tested: FOI >=10 = positive)”.

B5: mAb 112 (antibody, V domains shown)
VH: EVQLVESGGGLVKTGGSHRLSCVASGFSFKKAWMNWVRQAPGKGLEWVGRIKRNSDGGTTDYAAPVKGRFILSRDDSKNTLYLQMNSLKTEDTAVYYCTTLDSSSWYVGYYYMDVWGKGTTVTVSS
VL: DIQMTQSPSSVSASVGDRVTITCRASQDINNWLAWYQQKPGKAPKILIYTASNLQSGVPSRFSGSGSGTDFTLTISSLQPEDFATYFCQQAHSLPITFGQGTRLEIK
As to B5, in assay [1], the “Human primary T Cell Binding (FOI)” value is 174 FOI and the “Jurkat Cell Binding (FOI)” value is 158 FOI. Further, in assay [2], the binding result was “no binding (tested: FOI >=10 = positive)”.

B6: mAb 99 (antibody, V domains shown)
VH: QGQLVESGGGVVQPGRSLRLSCAASGFTFRGFGMHWVRQAPGKGLEWVAIIYYDGKNKYYADSVKGRFTISRDNSKNTLYLQMNSLRAEDTAVYYCAKGGGYNWFDPWGQGTLVTVSS
VL: DIQMTQSPSSLSASVGDRVTITCRASQSISTYLNWYQQKPGKAPKLLIYSASSLQSGVPSRFSGSGSGTDFTLTISNLQPEDFAIYYCQRSYSPPFTFGPGTKLDIR
For B6, in assay [1], the “Human primary T Cell Binding (FOI)” value came out at 218 FOI and the “Jurkat Cell Binding (FOI)” value stood at 198 FOI. Further, in assay [2], the binding result was “no binding (tested: FOI >=10 = positive)”.

B7: mAb 95 (antibody, V domains shown)
VH: QAHLVESGGGVVQPGRSLRLSCSASGFTFSGYGMHWVRQAPGKGLEWVALIYFDGRNKYYADSVKGRFTISRDNSKNTLYLQMNSLRAEDTAVYYCARGGGYNWFDPWGQGTLVTVSS
VL: DIQMTQSPSSLSASVGDRVTITCRASQSINNYLSWYQQKPGKAPKLLIYLASNLQSGVPSRFSGSGSGTDFTLTISSLQPEDFATYYCQLSYRSPFTFGPGTKVDVK
As for B7, in assay [1], the “Human primary T Cell Binding (FOI)” value worked out at 206 FOI and the “Jurkat Cell Binding (FOI)” value came out at 177 FOI. Besides, the binding result in assay [2] is given as “no binding (tested: FOI >=10 = positive)”.

B8: mAb 98 (antibody, V domains shown)
VH: QVHLVESGGDVVQPGRSLRLSCSASGFTFSGYGMHWVRQAPGKGLEWVALIYFDGRNKYYADSVKGRFTISRDNSKNTLYLQMNSLRAEDTAVYYCARGGGYNWFDPWGQGTLVTVSS
VL: DIQMTQSPSSLSASVGDRVTITCRASQSINNYLNWYQQKPGKAPKLLIYLASSLQSGVPSRFSGSGSGTDFTLTISSLQPEDLATYYCQLSYSSPFTFGPGTKVDVK
Take B8: in assay [1], the “Human primary T Cell Binding (FOI)” value is 174 FOI and the “Jurkat Cell Binding (FOI)” value turned out to be 181 FOI. In assay [2], the binding result is “no binding (tested: FOI >=10 = positive)”.

B9: mAb 96 (antibody, V domains shown)
VH: QAHLVESGGGVVQPGRSLRLSCSASGFTFSGYGMHWVRQAPGKGLEWVSLIYFDGRNKYYADSVKGRFTISRDNSKNTLYLQMNSLRAEDTAVYYCARGGGYNWFDPWGQGTLVTVSS
VL: DIQMTQSPSSLSASVGDRVTITCRASQSINNYLSWYQQKPGKAPKLLIYLASNLQSGVPSRFSGNGSGTDFTLTISSLQPEDFATYYCQLSYRSPFTFGPGTKVDVK
Turning to B9, in assay [1], the “Human primary T Cell Binding (FOI)” value stood at 189 FOI and the “Jurkat Cell Binding (FOI)” value came out at 174 FOI. In assay [2], the binding result is on record as “no binding (tested: FOI >=10 = positive)”.

B10: mAb 93 (antibody, V domains shown)
VH: QVQLVESGGGVVQPGRSLRLSCAASGFTFRGYGMHWVRQAPGKGLEWVAIIYYNGNNKYYADSVKGRFTISRDNSKNTLYLQMNSLRAEDTAVYYCARGGGYNWFDPWGQGTLVTVSS
VL: DIQMTQSPSSLSASVGDRVTITCRASQSISNYLNWYQQEPGKAPKLLIYTASSLQSGVPSRFSGSGSGTAFTLTISSLQPEDFAIYYCQRSSSPPFTFGPGTKLDIK
For the molecule B10, in assay [1], the “Human primary T Cell Binding (FOI)” value is 198 FOI and the “Jurkat Cell Binding (FOI)” value stood at 175 FOI. In assay [2], the binding result was “no binding (tested: FOI >=10 = positive)”.

B11: mAb 101 (antibody, V domains shown)
VH: QGQLVESGGGVVQPGRSLRLSCAASGFTFRGFGMHWVRQAPGKGLEWVAIIYYDGKNKYYADSVKGRFTISRDNSKNMLYLQMNSLRAEDTAVYYCAKGGGYNWFDPWGQGTLVTVSS
VL: DIQMTQSPSSLSASVGDRVTITCRASQSISTYLNWYQQKPGKAPKLLIYSASSLQSGVPSRFSGSGSGTDFTLTISNLQPEDFAIYYCQRSYSPPFTFGPGTKLDIR
With B11, in assay [1], the “Human primary T Cell Binding (FOI)” value was 233 FOI and the “Jurkat Cell Binding (FOI)” value is 216 FOI. Besides, in assay [2], the binding result is given as “no binding (tested: FOI >=10 = positive)”.

B12: mAb 97 (antibody, V domains shown)
VH: QGQLVESGGGVVQPGRSLRLSCAASGFTFRGYGMHWVRQAPGKGLEWVAIIYYDGKNKYYADSVKGRFTISRDNSKNTLYLQMNNLRVEDTAVYYCARGGGYNWFDPWGQGTLVTVSS
VL: DIQMTQSPSSLSASIGDRVTITCRASQSISNYLNWYQQKPGKAPKLLIYSASSLQSGVPSRFSGSGSGTDFTLTISNLQPEDFAIYYCQRSYSPPFTFGPGTKLDIR
As to B12, in assay [1], the “Human primary T Cell Binding (FOI)” value was found to be 211 FOI and the “Jurkat Cell Binding (FOI)” value was 192 FOI. In assay [2], the binding result is “no binding (tested: FOI >=10 = positive)”.

B13: mAb 94 (antibody, V domains shown)
VH: QVHLVESGGGVVQPGRSLRLSCSASGFTFSGYGMHWVRQAPGKGLEWVALIYFDGRNKYYADSVKGRFTISRDNSKNTLYLQMNSLRAEDTAVYYCARGGGYNWFDPWGQGTLVTVSS
VL: DIQMTQSPSSLSASVGDRVTITCRASQSISNYLNWYQQKPGKAPKLLIYLASSLQSGVPSRFSGSGSGTDFTLTINSLQPEDFASYYCQLSYSSPFTFGPGTKVDVN
As for B13, in assay [1], the “Human primary T Cell Binding (FOI)” value came to 174 FOI and the “Jurkat Cell Binding (FOI)” value amounted to 170 FOI. Besides, the binding result in assay [2] was “no binding (tested: FOI >=10 = positive)”.

B14: mAb 100 (antibody, V domains shown)
VH: QVQLVESGGGVVQPGRSLRLSCVASGFTFRGYGMHWVRQAPGKGLEWVAIIYYDGKNKYYADSVKGRFTISRDNSKNTLYLQMNSLRVEDTALYYCARGGGYNWFDPWGQGTLVTVSS
VL: DIQMTQSPSSLSASVGDRVTITCRASQSISTYLNWYQQKPGKAPKLLIYTASSLQSGVPSRFSGSGSGTVFTLTISSLQPEDFAIYYCQRSYSPPFTFGPGTRLDIK
Take B14: in assay [1], the “Human primary T Cell Binding (FOI)” value amounted to 229 FOI and the “Jurkat Cell Binding (FOI)” value stood at 241 FOI. In addition, the binding result in assay [2] is listed as “no binding (tested: FOI >=10 = positive)”.

B15: mAb 102 (antibody, V domains shown)
VH: QVQLVESGGGVVQPGRSLRLSCAASGFSFRSYGMHWVRQAPGKGLEWVSVISYDGGNKYYADSVKGRFTISRDNSKNTLFLQMKSLRAEDTALYYCAKGGGTYWRGLFEYWGQGTLVTVSS
VL: DIQLTQSPSFLSASVGDRVTITCRASQGISSYLAWYQKKPGKAPKLLIYAASTLHSGVPSRFSGGGSGTAFTLTISSLQPEDFATYYCQQLNNYPFTFGPGTKVDIK
B15: in assay [1], the “Human primary T Cell Binding (FOI)” value was 98.9 FOI and the “Jurkat Cell Binding (FOI)” value turned out to be 101 FOI. In addition, the binding result in assay [2] is listed as “no binding (tested: FOI >=10 = positive)”.

The record behind these values is patent US20230295310A1 (ABCELLERA BIOLOGICS, published 2023).
